The target in assay [1] is T1, CEACAM1 antigen (Sino Biological, Inc.) (UniProt P13688 35-428).
T1 construct: Bought antigen coated on the ELISA plate; construct not described; also called CEACAM1 (CD66a) antigen; CD66a
T1 sequence (looked up): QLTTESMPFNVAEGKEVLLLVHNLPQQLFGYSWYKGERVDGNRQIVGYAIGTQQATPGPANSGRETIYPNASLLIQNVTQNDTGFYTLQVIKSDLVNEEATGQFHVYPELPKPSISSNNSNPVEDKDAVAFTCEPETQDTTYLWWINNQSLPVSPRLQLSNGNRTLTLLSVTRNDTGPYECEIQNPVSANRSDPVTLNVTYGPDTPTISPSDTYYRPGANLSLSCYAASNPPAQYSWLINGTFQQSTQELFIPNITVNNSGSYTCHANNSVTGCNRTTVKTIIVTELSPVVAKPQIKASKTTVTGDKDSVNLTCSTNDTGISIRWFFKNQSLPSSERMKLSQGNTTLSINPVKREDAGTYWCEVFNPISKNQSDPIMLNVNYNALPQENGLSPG
The assay can be described thus: ELISA, coated CEACAM1 100 ng/well, antibody 10000.00 ng/ml. Here is the method:
(§1) Antigen CD66c (CEACAM6; Sino Biological, Inc.) and CEACAM1 antigen (Sino Biological, Inc.) were coated on a 96-well plate at 100 ng per well and then blocked. The primary antibody was diluted serially three fold from 10 ug/ml at initial concentration and was bound at 37° C. for 1 hour, and goat anti-Human Ig-HRP conjugate (Jackson ImmunoResearch) as a secondary antibody was diluted 1:10,000 and incubated at 37° C. for 30 minutes. The washing was carried out at three times between each step, and the TMB reaction was performed, stopped with 1N H₂SO₄ solution at the same amount of TMB solution (100 ul) and then OD value was measured at 450 nm.
(§2) As a result of the experiment, the binding affinities to CD66c antigen of the five kinds of recombinant humanized antibodies selected from among 96 kinds of recombinant humanized antibodies are shown in FIG. 4a, Table 12, FIG. 4b and Table 13. FIG. 4a and Table 12 show the binding capacity of the antibodies to CECACAM6 CD66c) antigen, and FIG. 4b and Table 13 are the results for the CEACAM1 (CD66a) antigen.

Assay [2] deals with T1, CEACAM1 antigen (Sino Biological, Inc.). The assay can be described thus: ELISA, coated CEACAM1 100 ng/well, antibody 123.46 ng/ml. Here is the method: as §1, §2
The target is the same in assay [3]. The assay can be described thus: ELISA, coated CEACAM1 100 ng/well, antibody 0.51 ng/ml. Here is the method: as §1, §2
Assay [4] has as its target T2, Antigen CD66c (CEACAM6; Sino Biological, Inc.) (UniProt P40199 35-320).
T2 construct: Bought antigen coated on the ELISA plate; construct not described; also called CD66c antigen; CECACAM6
T2 sequence (looked up): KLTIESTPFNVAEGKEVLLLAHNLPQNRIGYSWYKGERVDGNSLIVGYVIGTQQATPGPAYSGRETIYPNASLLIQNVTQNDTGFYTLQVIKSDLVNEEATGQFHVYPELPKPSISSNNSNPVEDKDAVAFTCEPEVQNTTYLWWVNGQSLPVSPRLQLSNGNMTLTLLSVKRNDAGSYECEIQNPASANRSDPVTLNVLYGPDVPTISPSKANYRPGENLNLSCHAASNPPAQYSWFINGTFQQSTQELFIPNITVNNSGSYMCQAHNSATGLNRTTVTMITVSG
The assay is described as follows: ELISA, coated CEACAM6 100 ng/well, antibody 370.37 ng/ml. The method, then: as §1, §2

The target in assay [5] is T3, CD66c (CEACAM6) on CD66c-positive A549 non-small-cell lung cancer cells (UniProt P40199 35-320, limits assumed).
T3 construct: whole, on cells; also called CD66c antigen; NCA-90
T3 sequence (looked up): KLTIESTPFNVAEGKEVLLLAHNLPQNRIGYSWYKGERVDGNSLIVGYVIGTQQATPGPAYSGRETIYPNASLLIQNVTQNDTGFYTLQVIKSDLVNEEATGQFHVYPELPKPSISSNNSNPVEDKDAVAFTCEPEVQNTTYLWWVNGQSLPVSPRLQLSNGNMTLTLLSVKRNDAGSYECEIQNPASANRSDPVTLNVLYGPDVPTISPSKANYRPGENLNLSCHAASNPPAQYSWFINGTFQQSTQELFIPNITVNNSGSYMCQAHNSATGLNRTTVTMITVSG
The assay is described as follows: flow cytometry on A549 cells, relative to chimeric antibody. The method, then: Each expressed 96 recombinant humanized antibody was poured and reacted in a test tube containing the same amount ([…]) of CD66c-positive A549 non-small-cell lung cancer cell line at 4° C. for 30 minutes, washed with PBS, and treated with FITC-conjugated goat anti-Human IgG (DiNona Inc, Korea) was added and incubated at 4° C. for 15 minutes. After washing with PBS, the cells were analyzed with a flow cytometer (Stratedigm, S1000EXi) and the results are shown below.
Among the 96 recombinant humanized antibody candidates, eight were firstly selected based on the degree of expression, the presence of aggregation, and the degree of cell binding (Table 9 and Table 10, FIGS. 3A to 3E).

The target of assay [6] is T1, CEACAM1 antigen (Sino Biological, Inc.). The assay is described as follows: ELISA, coated CEACAM1 100 ng/well, antibody 4.57 ng/ml. Here is the method:
as §1, §2

Assay [7] has as its target T2, Antigen CD66c (CEACAM6; Sino …). The assay is described as follows: ELISA, coated CEACAM6 100 ng/well, antibody 10000.00 ng/ml. The method, then:
as §1, §2

Assay [8] has the same target. The assay is described as follows: ELISA, coated CEACAM6 100 ng/well, antibody 41.15 ng/ml. The method, then:
as §1, §2

For assay [9], the target named is T1, CEACAM1 antigen (Sino Biological, Inc.). The assay can be described thus: ELISA, coated CEACAM1 100 ng/well, antibody 3333.33 ng/ml. Here is the method:
as §1, §2

For assay [10] the target is unchanged. The assay is described as follows: ELISA, coated CEACAM1 100 ng/well, antibody 1111.11 ng/ml. The method, then:
as §1, §2

For assay [11] the target is unchanged. The assay is described as follows: ELISA, coated CEACAM1 100 ng/well, antibody 370.37 ng/ml. The method, then:
as §1, §2

Assay [12] has the same target. The assay can be described thus: ELISA, coated CEACAM1 100 ng/well, antibody 13.72 ng/ml. The method, then: as §1, §2

The values that follow come from patent US20190263905A1 (DINONA, published 2019).

B1: recombinant humanized anti-CD66c antibody Protein ID 3058 (Vk8 + VH11) (antibody, human IgG1, V domains shown)
VH: QVQLVQSGAEVKKPGASVKISCKASGYSFTDYTMHWVKQAPGQNLEWIGLINPFGGSTSYAQKFKGRVTMTRDTSTNTAYMELSRLRSDDTAVYYCVRGDPVRHYYALAYWGQGTLVTVSS
VL: DIQMTQSPSTLSASVGDRVTITCRASENVYGTLNWYQRKPGKAPKLLIYGATNLADGMPSRFSGSGSGTEYTLTISSLQPDDFATYYCQNVLSAPYTFGGGTKLEIK
notes: also called hu 3058; #86
As to B1, the “OD 450 nm” value in [1] worked out at 0.42 OD; in [2], 0.07 OD; in assay [3] it was 0.04 OD; in assay [4], 2.8 OD; in assay [6], 0.05 OD; in [7], 2.87 OD. For the same molecule, the “OD 450 nm” value in assay [8] worked out at 1.38 OD; in [9], 0.31 OD; in [10], 0.19 OD; in assay [11] it was 0.12 OD; in assay [12] it was 0.05 OD. Also, the “% (% gated × mean)” value in [5] turned out to be 103%.

B2: recombinant humanized anti-CD66c antibody Protein ID 3007 (Vk7 + VH6) (antibody, human IgG1, V domains shown)
VH: QVQLVQSGAEVKKPGASMKISCKASGYSFTDYTMNWVKQAPGQNLEWIGLINPFHGGTVSNQRFKVKATLTVDVSTNTAYMELSRLRSDDTAVYYCVRGDPVRHYYALAYWGQGTLVTVSS
VL: DIQMTQSPSTLSASVGDRVTITCGASENVYGTLNWYQRKPGKAPKLLIYGATNLADGVPSRFSGSGSGTEYTLTISSLQPDDFATYYCQNVLSAPYTFGGGTKLEIK
notes: also called hu 3007; #43
For B2, the “OD 450 nm” value in [1] was determined as 1.01 OD; in [2], 0.82 OD; in [3] it was 0.11 OD; in assay [4] it was 3.16 OD; in assay [6], 0.27 OD; in assay [7], 3.37 OD. In addition, the “OD 450 nm” value is 2.17 OD in assay [8]; 1.15 OD in assay [9]; 1.06 OD in assay [10]; 0.92 OD in assay [11]; 0.46 OD in assay [12]. Further, the “% (% gated × mean)” value in [5] is 88.8%.

B3: recombinant humanized anti-CD66c antibody Protein ID 2938 (Vk5 + VH7) (antibody, human IgG1, V domains shown)
VH: QVQLVQSGAEVKKPGASMKISCKASGYSFTDYTMNWVRQAPGQGLEWIGLINPFHGGTVSNQRFKVKATLTVDVSTNTAYMELSRLRSDDTAVYYCVRGDPVRHYYALAYWGQGTLVTVSS
VL: DIQMTQSPSTLSASVGDRVTITCGASENVYGTLAWYQRKPGKAPKLLIYGATNLADGVPSRFSGSGSGREYTLTISSLQPDDFATYYCQNVLSAPYTFGGGTKLEIK
notes: also called hu 2938
With B3, the “OD 450 nm” value in assay [1] stood at 0.32 OD; in assay [2], 0.1 OD; in assay [3], 0.05 OD; in [4] it was 3.08 OD; in [6], 0.05 OD; in assay [7] it was 3.43 OD. In addition, the “OD 450 nm” value in assay [8] was 1.72 OD; in assay [9] it was 0.27 OD; in [10], 0.21 OD; in assay [11], 0.14 OD; in assay [12], 0.06 OD. For the same molecule, in [5], the “% (% gated × mean)” value was 96%.

B4: recombinant humanized anti-CD66c antibody Protein ID 3043 (Vk8 + VH6) (antibody, human IgG1, V domains shown)
VH: QVQLVQSGAEVKKPGASMKISCKASGYSFTDYTMNWVKQAPGQNLEWIGLINPFHGGTVSNQRFKVKATLTVDVSTNTAYMELSRLRSDDTAVYYCVRGDPVRHYYALAYWGQGTLVTVSS
VL: DIQMTQSPSTLSASVGDRVTITCRASENVYGTLNWYQRKPGKAPKLLIYGATNLADGMPSRFSGSGSGTEYTLTISSLQPDDFATYYCQNVLSAPYTFGGGTKLEIK
notes: also called hu 3043; #71
On to B4, for which the “OD 450 nm” value was 0.91 OD in assay [1]; 0.7 OD in [2]; 0.1 OD in assay [3]; 2.92 OD in assay [4]; 0.27 OD in assay [6]; 2.73 OD in assay [7]. Moreover, the “OD 450 nm” value is 1.73 OD in assay [8]; 1.22 OD in assay [9]; 1.17 OD in [10]; 0.8 OD in assay [11]; 0.43 OD in [12]. Besides, the “% (% gated × mean)” value in assay [5] was 105%.

B5: anti-CD66c chimeric antibody 8F5 (antibody, human IgG1, V domains shown)
VH: EVQLQQSGPELVKPGASMKISCKASGYSFTDYTMNWVKQSHGKNLEWIGLINPFHGGTVSNQRFKVKATLTVDVSSNTAYMELLSLTSDDSAVYYCVRGDPVRHYYALAYWGQGTSVTVSS
VL: DIQMTQSPASLSASVGETVTITCGASENVYGTLNWYQRKQGKSPQLLIYGATNLADGMSSRFSGSGSGRQYSLKISSLHPDDVATYYCQNVLSAPYTFGGGTKLEII
notes: also called chimeric 8F5 antibody; chi 8F5
Regarding B5, the “OD 450 nm” value is 1.21 OD in assay [1]; 0.95 OD in [2]; 0.1 OD in assay [3]; 3.3 OD in assay [4]; 0.28 OD in [6]; 3.17 OD in assay [7]. Besides, the “OD 450 nm” value was 2.02 OD in assay [8]; 1.24 OD in [9]; 1.21 OD in [10]; 1.13 OD in [11]; 0.51 OD in assay [12]. The “% (% gated × mean)” value in assay [5] is 100%.
